Assay results from US20240166742A1, “MOLECULES THAT BIND TO AND STABILIZE TRIGGERING RECEPTOR EXPRESSED ON MYELOID CELLS 2 (TREM2)” (Novartis AG, priority 2015, published 2024).
[NapdU] = code of the source, not defined here

Tests used:
[1] = biological target: T1, cell surface human TREM2 on primary human M2a macrophages (Homo sapiens, UniProt Q9NZC2); experiment: TREM2 surface stabilization by SOMAmers on primary human M2a macrophages (flow cytometry); type: cell-based; details: 37° C. for 3 hours
T1 construct: Human M2a macrophages were generated from monocytes isolated from buffy coats; endogenous in cells; host or cells: primary human M2a macrophages differentiated from buffy-coat monocytes (MCSF + IL4)
T1 sequence (Q9NZC2 19-230): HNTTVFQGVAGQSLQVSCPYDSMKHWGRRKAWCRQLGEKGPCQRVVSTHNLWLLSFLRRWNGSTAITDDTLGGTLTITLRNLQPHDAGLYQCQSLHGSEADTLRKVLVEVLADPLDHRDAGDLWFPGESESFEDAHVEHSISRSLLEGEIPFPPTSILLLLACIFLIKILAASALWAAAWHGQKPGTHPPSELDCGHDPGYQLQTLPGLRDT
Experimental: Human M2a macrophages were generated from monocytes isolated from buffy coats by negative selection. M2a macrophages were generated by 5-6 days differentiation of monocytes in RPMI (supplemented 10% fetal bovine serum, and typical concentrations of Glutamax, Sodium pyruvate, Non Essential Amino Acids, HEPES) with MCSF 40 ng/mL (R&D) and 50 ng/mL IL4 (R&D). M2a macrophages were harvested with cell dissociation buffer (Gibco 13151-014) and cell surface TREM2 was assessed by flow cytometry as described below.
Cells were stained for TREM2 surface expression in FACS buffer (PBS, containing 10% heat-inactivated human serum AB male (Invitromex), 0.05% w/v sodium azide, 5 mM EDTA, 1 mg/mL Privigen (Mg) in PBS using goat anti-human TREM2 (R&D) or an appropriate isotype control. Cells were counterstained with F(ab)′2 fragments of an rabbit anti-goat IgG polyclonal antibody conjugated with Alexa488 (LifeTechnologies). All stainings were performed on ice for 30 min Cells were assessed for TREM2 surface expression on a BD LSR Fortessa or a FacsCalibur flow cytometer. Median fluorescence intensities corresponding to the degree of anti-TREM2 bound to cells were evaluated using FlowJo (Millipore INC)
TREM2 SOMAmers were tested for their ability to stabilize or increase cell surface human TREM2, e.g., by modulating homeostatic dynamics of shedding or internalization. […]

[2] = biological target: T2, cell surface human TREM2 on CHO-hTREM2 cells (Homo sapiens, UniProt Q9NZC2); experiment: TREM2 surface stabilization by SOMAmers on CHO-hTREM2 cells (flow cytometry); type: cell-based; details: 37° C. for 3 hours
T2 construct: expressed in transfected cells; host or cells: CHO cells, stably double transfected (G418 / hygromycin)
Experimental: A HEK cell line stably expressing a chimeric receptor consisting of TREM2-extracellular domain and DAP12 was first described by Kleinberger et al. 2014. In analogy a TREM-2/DAP12 chimeric receptor expressing cell line was produced according to standard cell culture procedures. CHO cells were sequentially transfected with eukaryotic expression vectors for human DAP12 (hDAP12) and human TREM2 (hTREM2). Resulting CHO-hTREM2/hDAP12 double transfected cells (CHO-hTREM2) were grown in DMEM/F12 medium supplemented with 10% fetal bovine serum 0.2 mg/ml G418 and 0.2 mg/mL hygromycin. Confluent adherent CHO cells were harvested after treatment with cell dissociation buffer (Gibco 13151-014) and cell surface TREM2 was quantified by flow cytometry as described below. […]
TREM2 SOMAmers were tested for their ability to stabilize or increase cell surface human TREM2, e.g., by modulating homeostatic dynamics of shedding or internalization. […] Cells were then assessed for surface human TREM2 by flow cytometry.

[3] = biological target: T2, cell surface human TREM2 on CHO-hTREM2 cells; experiment: Binding of biotinylated SOMAmers to cellular TREM2 by flow cytometry; type: cell-based; details: CHO-hTREM2 vs CHO control cells; on ice; streptavidin-APC detection
Experimental: A HEK cell line stably expressing a chimeric receptor consisting of TREM2-extracellular domain and DAP12 was first described by Kleinberger et al. 2014. In analogy a TREM-2/DAP12 chimeric receptor expressing cell line was produced according to standard cell culture procedures. CHO cells were sequentially transfected with eukaryotic expression vectors for human DAP12 (hDAP12) and human TREM2 (hTREM2). Resulting CHO-hTREM2/hDAP12 double transfected cells (CHO-hTREM2) were grown in DMEM/F12 medium supplemented with 10% fetal bovine serum 0.2 mg/ml G418 and 0.2 mg/mL hygromycin. Confluent adherent CHO cells were harvested after treatment with cell dissociation buffer (Gibco 13151-014) and cell surface TREM2 was quantified by flow cytometry as described below.
Binding of SOMAmers to cellular TREM2 was assessed by incubation of biotinylated SOMAmers at various concentrations with CHO-hTREM2 cells. In this case binding of SOMAmers to cell surface TREM2 was done on ice for 20-30 min to prevent modulation of cell surface TREM2. […] Cells were thereafter washed with FACS buffer and bound biotinylated SOMAmers were detected via streptavidin-APC conjugate (Biolegend, Inc). Median fluorescence intensities corresponding to the degree of TREM2 SOMAmer bound to cells were acquired on a FacsCalibur flow cytometer and evaluated using FlowJo (Millipore INC).

[4] = biological target: T3, human TREM2 stalk region Peptide 79
T3 chain: VEVLADPLDHRD

[5] = biological target: T4, human TREM2 stalk region Peptide 77
T4 chain: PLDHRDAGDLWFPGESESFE

[6] = biological target: T5, human TREM2 stalk region Peptide 80
T5 chain: ESESFEDAHVEH

[7] = biological target: T6, human TREM2 stalk region Peptide 76
T6 chain: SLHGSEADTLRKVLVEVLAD

[8] = biological target: T7, human TREM2 stalk region Peptide 78
T7 chain: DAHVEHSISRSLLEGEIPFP

T2 sequence (O43914 22-113 partner, one chain of several): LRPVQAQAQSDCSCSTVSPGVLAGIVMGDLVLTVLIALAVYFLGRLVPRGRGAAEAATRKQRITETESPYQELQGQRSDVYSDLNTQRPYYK

Question: “KX86-94WC: TREM2 SOMAmer, core sequence SEQ ID NO: 13, P = NapdU modified dUTP residue (DNA CCCTCUGUCAACCUCCACACAGGCCUUUGAUGCAAGUAUACAGUGGAAGA; DNA, [NapdU] at 6, 8, 14, 26, 27, 28, 31, 37, 39, 44, backbone and methylation of C not given here; further chemistry not fully specified)” was tested. Which “cell surface human TREM2 level (stabilization)” value (from here on “cell surface human TREM2 level”) [1] did it give?
Answer: The value was “stabilized cell surface human TREM2”.

Question: And the “cell surface human TREM2 level” value [2]?
Answer: The value was “stabilized cell surface human TREM2”.

Question: Which “cell surface human TREM2 level” value [2] does the source give for “UX95-90BC: TREM2 SOMAmer (slow off-rate modified aptamer), core sequence SEQ ID NO: 12, P = NapdU modified dUTP residue (DNA CCCTCGAUCCGGUGGCGGAUCCUAAGUAUUGGCCCGGUCCGCCAAGAAGA; DNA, [NapdU] at 8, 13, 20, 23, 27, 29, 30, 38, backbone and methylation of C not given here; further chemistry not fully specified)” here?
Answer: The value was “stabilized and increased cell surface human TREM-2”.

Question: “EX83-95HC: control SOMAmer, core sequence SEQ ID NO: 14 (DNA CCCTCCCUAUCGCAAUGACACAUUGGGGUCUCGAGGUGCGCGAUCGAAGA; DNA, [NapdU] at 8, 10, 16, 23, 24, 29, 31, 37, 44, backbone and methylation of C not given here; further chemistry not fully specified)” was tested. Which “binding to cell surface human TREM2” value [3] did it give?
Answer: The value was “did not bind to cell surface human TREM2”.

B1: Human TACE (ADAM-17) recombinant catalytic domain (protein)
chain: RADPDPMKNTCKLLVVADHRFYRYMGRGEESTTTNYLIELIDRVDDIYRNTSWDNAGFKGYGIQIEQIRILKSPQEVKPGEKHYNMAKSYPNEEKDAWDVKMLLEQFSFDIAEEASKVCLAHLFTYQDFDMGTLGLAYVGSPRANSHGGVCPKAYYSPVGKKNIYLNSGLTSTKNYGKTILTKEADLVTTHELGHNFGAEHDPDGLAECAPNEDQGGKYVMYPIAVSGDHENNKMFSNCSKQSIYKTIESKAQECFQERSNKV
Question: Which “TACE cleavage of the Mca-labelled peptide (HPLC/HRMS)” value (shortened to “TACE cleavage … (HPLC/HRMS)”) [4] does the source give for B1 here?
Answer: The value was “no TACE cleavages were observed for Peptides 76, 79, 77 and 80”.

Question: What about the “TACE cleavage … (HPLC/HRMS)” value [5] of the same molecule?
Answer: The value was “no TACE cleavages were observed for Peptides 76, 79, 77 and 80”.

Question: And the “TACE cleavage … (HPLC/HRMS)” value [6]?
Answer: The value was “no TACE cleavages were observed for Peptides 76, 79, 77 and 80”.

Question: What about the “TACE cleavage … (HPLC/HRMS)” value [7] of the same molecule?
Answer: Its value is “no TACE cleavages were observed for Peptides 76, 79, 77 and 80”.

Question: And the “TACE cleavage … (HPLC/HRMS)” value [8]?
Answer: The value was “For Peptide 78, two main cleavage products by TACE were found: DAHVEH (termed X01, SEQ ID NO: 25) and SISRSLLEGEIPFP (termed X02, SEQ ID NO: 26)”.
